These results are taken from paper PMC2408616, “Modular Organization and Combinatorial Energetics of Proline–Tyrosine Nuclear Localization Signals” (PLoS Biology, 2008).

One experiment addresses T1, Kap104p (yeast (S. cerevisiae), UniProt P38217 1-918).
T1 construct: Kap104p, yeast homolog of Kapβ2; gene a gift from J. Aitchison, subcloned into pGEX-Tev; also called yeast Karyopherin β2 homolog; source: E. coli Rosetta(DE3)pLysS, purified (glutathione sepharose, TEV cleavage, anion exchange, gel filtration)
T1 sequence (looked up): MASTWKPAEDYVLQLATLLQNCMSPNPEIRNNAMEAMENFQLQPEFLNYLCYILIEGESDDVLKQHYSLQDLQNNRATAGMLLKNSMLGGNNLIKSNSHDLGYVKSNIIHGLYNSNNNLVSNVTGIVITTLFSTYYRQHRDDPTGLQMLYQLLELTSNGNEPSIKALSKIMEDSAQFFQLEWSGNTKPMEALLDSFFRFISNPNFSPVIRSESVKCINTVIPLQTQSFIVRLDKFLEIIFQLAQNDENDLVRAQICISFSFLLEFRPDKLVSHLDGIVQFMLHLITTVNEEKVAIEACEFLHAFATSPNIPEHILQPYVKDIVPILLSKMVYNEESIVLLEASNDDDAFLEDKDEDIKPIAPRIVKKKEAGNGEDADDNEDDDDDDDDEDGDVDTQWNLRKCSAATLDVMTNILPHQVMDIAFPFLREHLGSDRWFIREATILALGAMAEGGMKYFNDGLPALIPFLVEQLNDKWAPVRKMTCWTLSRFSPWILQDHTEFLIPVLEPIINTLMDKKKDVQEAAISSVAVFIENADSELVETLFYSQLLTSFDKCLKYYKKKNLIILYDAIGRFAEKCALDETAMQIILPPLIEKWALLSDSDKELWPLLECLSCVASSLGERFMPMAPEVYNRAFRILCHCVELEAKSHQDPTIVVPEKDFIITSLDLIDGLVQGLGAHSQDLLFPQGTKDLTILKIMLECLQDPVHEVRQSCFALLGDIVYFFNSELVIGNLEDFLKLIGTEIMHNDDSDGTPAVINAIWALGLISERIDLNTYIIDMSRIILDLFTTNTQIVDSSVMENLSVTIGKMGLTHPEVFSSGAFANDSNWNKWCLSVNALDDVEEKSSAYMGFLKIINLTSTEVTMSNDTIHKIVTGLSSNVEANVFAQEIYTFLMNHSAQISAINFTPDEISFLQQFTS
The experiment is described as follows: ITC; 90–350 μM MBP-NLS titrated into 9–35 μM Kap104p in the cell; 20 °C; 20 mM Tris pH 7.5, 100 mM NaCl, 2 mM β-mercaptoethanol, 10% glycerol; 35 injections of 8 μl; single-site model. The following applies: both partners purified. Background: Isothermal titration calorimetry measures the heat released or taken up as one component is titrated into another.

The target of the next experiment is T2, Kap104p, P38217.
T2 chain: T1 sequence (looked up)
The experiment is described as follows: ITC. The settings on record: for ddG / ratio to parent: chain shown with the change; for other: TΔS / Kd / other: ΔH / dG: chain shown with the change;; for other: TΔS: parent: 0.09 ± 0.7; for Kd: parent: 32 ± 16; for other: ΔH: parent: -10.0 ± 0.5; for dG: parent: -10.1 ± 0.3.

Substitutions are numbered along the chain they refer to. Numbers in names are those of the source. Where no end group is shown, it is not given here. MBP = not defined here

B1: MBP–Hrp1p NLS (domain or fragment, S. cerevisiae, UniProt Q99383 494-534, looked up)
chain: RDRNDRDRDYNHRSGGNHRRNGRGGRGGYNRRNNGYHPYNR
notes: Hrp1p NLS, residues 494-534; also called Hrp1p NLS wild type; source: E. coli BL21(DE3), purified (amylose resin, cation exchange)
In general, Kd refers to a measure of binding affinity in units of concentration. As for B1, the Kd in the experiment with Kap104p turned out to be 32 nM.

B2: MBP–Hrp1p NLS 516RGG518/AAA (domain or fragment, S. cerevisiae, UniProt Q99383 494-534, looked up)
chain: B1 chain with R23A, G24A, G25A
notes: Hrp1p NLS, residues 494-534; source: E. coli BL21(DE3), purified (amylose resin, cation exchange)
With B2, in the experiment with Kap104p, P38217, the ddG was -0.3 kcal/mol, the ratio to parent amounted to 0.7, the other: TΔS worked out at 2 kcal/mol/K and the Kd was determined as 24 nM. In addition, in the experiment with Kap104p, P38217, the other: ΔH was -8.3 kcal/mol and the dG is -10.3 kcal/mol. For the same molecule, the binding result with Kap104p is “binds”.

B3: MBP–Hrp1p NLS Y532M (domain or fragment, S. cerevisiae, UniProt Q99383 494-534, looked up)
chain: B1 chain with Y39M
notes: as for B2
Molecule B3 returned a Kd with Kap104p of 2000 nM.

B4: MBP–Hrp1p NLS 506RSGG509/AAAA (domain or fragment, S. cerevisiae, UniProt Q99383 494-534, looked up)
chain: B1 chain with R13A, S14A, G15A, G16A
notes: as for B2
In the case of B4, in the experiment with Kap104p, P38217, the ddG amounted to 0.02 kcal/mol, the ratio to parent came to 1.3, the other: TΔS was -2.6 kcal/mol/K and the Kd was 42 nM. For the same molecule, in the experiment with Kap104p, P38217, the other: ΔH is -12.6 kcal/mol and the dG is -10 kcal/mol. The binding result with Kap104p is on record as “binds”.

B5: MBP–Hrp1p NLS Y532F (domain or fragment, S. cerevisiae, UniProt Q99383 494-534, looked up)
chain: B1 chain with Y39F
notes: as for B2
As for B5, the “fold decrease in affinity against wild type” value with Kap104p came out at 4 fold.

B6: MBP–Hrp1p NLS Y532H (domain or fragment, S. cerevisiae, UniProt Q99383 494-534, looked up)
chain: B1 chain with Y39H
notes: as for B2
The molecule B6 returned a Kd with Kap104p of 1000 nM.

B7: MBP–Hrp1p NLS 524RR525/AA (domain or fragment, S. cerevisiae, UniProt Q99383 494-534, looked up)
chain: B1 chain with R31A, R32A
notes: as for B2
As for B7, in the experiment with Kap104p, P38217, the Kd was 62 nM. Moreover, the “KD,mutant/KD,wild type” value in the experiment with Kap104p was 1.7.

B8: MBP–Hrp1p NLS 512RRNG515/AAAA (domain or fragment, S. cerevisiae, UniProt Q99383 494-534, looked up)
chain: B1 chain with R19A, R20A, N21A, G22A
notes: as for B2
For B8, in the experiment with Kap104p, P38217, the ddG was determined as 0.2 kcal/mol, the ratio to parent amounted to 1.5, the other: TΔS came to 1.5 kcal/mol/K and the Kd turned out to be 48 nM. Besides, in the experiment with Kap104p, P38217, the other: ΔH is -8.3 kcal/mol and the dG is -9.8 kcal/mol. Besides, the binding result in the experiment with Kap104p is listed as “binds”.

B9: MBP–Hrp1p NLS 531PY532/AA (domain or fragment, S. cerevisiae, UniProt Q99383 494-534, looked up)
chain: {MBP}-RDRNDRDRDYNHRSGGNHRRNGRGGRGGYNRRNNGYHAANR
modifications: reading uncertain
notes: as for B2
Consider B9, for which, in the experiment with Kap104p, the Kd is above 10000 nM.

B10: MBP–Nab2p NLS (domain or fragment, S. cerevisiae, UniProt P32505 201-251, looked up)
chain: DNSQRFTQRGGGAVGKNRRGGRGGNRGGRNNNSTRFNPLAKALGMAGESNM
notes: Nab2p NLS, residues 201-251 (methods; the results say 201-250); also called Nab2p NLS wild type; source: E. coli BL21(DE3), purified (amylose resin, cation exchange)
In turn, B10 registered a Kd with Kap104p of 37 nM.

B11: MBP–Nab2p NLS L239G (domain or fragment, S. cerevisiae, UniProt P32505 201-251, looked up)
chain: B10 chain with L39G
notes: Nab2p NLS, residues 201-251; source: E. coli BL21(DE3), purified (amylose resin, cation exchange)
Turning to B11, the binding result with Kap104p is recorded as “binds”.

B12: MBP–Nab2p NLS L239D (domain or fragment, S. cerevisiae, UniProt P32505 201-251, looked up)
chain: B10 chain with L39D
notes: as for B11
On to B12, for which the “fold decrease in affinity against wild type” value with Kap104p turned out to be 11 fold.

B13: MBP–Nab2p NLS 238PL239/PY (domain or fragment, S. cerevisiae, UniProt P32505 201-251, looked up)
chain: {MBP}-DNSQRFTQRGGGAVGKNRRGGRGGNRGGRNNNSTRFNPYAKALGMAGESNM
modifications: reading uncertain
notes: Nab2p NLS, residues 201-251; also called L239Y; source: E. coli BL21(DE3), purified (amylose resin, cation exchange)
In the experiment with Kap104p, B13 came in with a Kd of 13 nM.

B14: MBP–Nab2p NLS R235A (domain or fragment, S. cerevisiae, UniProt P32505 201-251, looked up)
chain: B10 chain with R35A
notes: as for B11
Regarding B14, the “KD,mutant/KD,wild type” value in the experiment with Kap104p came to 5.5.

B15: MBP–Nab2p NLS L239T (domain or fragment, S. cerevisiae, UniProt P32505 201-251, looked up)
chain: B10 chain with L39T
notes: Nab2p NLS, residues 201-251; also called L239 to T; source: E. coli BL21(DE3), purified (amylose resin, cation exchange)
In the case of B15, in the experiment with Kap104p, the binding result is “binds”.

B16: MBP–Nab2p NLS R226A (domain or fragment, S. cerevisiae, UniProt P32505 201-251, looked up)
chain: B10 chain with R26A
notes: as for B11
For B16, in the experiment with Kap104p, the “KD,mutant/KD,wild type” value is around 1.

B17: MBP–Nab2p NLS L239H (domain or fragment, S. cerevisiae, UniProt P32505 201-251, looked up)
chain: B10 chain with L39H
notes: Nab2p NLS, residues 201-251; also called L239 to H; source: E. coli BL21(DE3), purified (amylose resin, cation exchange)
As for B17, the binding result in the experiment with Kap104p was “binds”.

B18: MBP–Nab2p NLS R229A (domain or fragment, S. cerevisiae, UniProt P32505 201-251, looked up)
chain: B10 chain with R29A
notes: as for B11
On to B18, for which, in the experiment with Kap104p, the “KD,mutant/KD,wild type” value is around 1.

B19: MBP–Nab2p NLS R235A, 238PL239/AA (domain or fragment, S. cerevisiae, UniProt P32505 201-251, looked up)
chain: B10 chain with R35A, P38A, L39A
notes: as for B11
In the experiment with Kap104p, B19 returned a Kd of 544 nM.

B20: MBP–Nab2p NLS R235K (domain or fragment, S. cerevisiae, UniProt P32505 201-251, looked up)
chain: B10 chain with R35K
notes: Nab2p NLS, residues 201-251; also called R235 to lysine; source: E. coli BL21(DE3), purified (amylose resin, cation exchange)
In the case of B20, the “KD,mutant/KD,wild type” value with Kap104p was 1.
